Laboratory results as given in patent US20190023750A1 (SPOGEN BIOTECH, published 2019).

Biological target: FLS2 receptor (in corn tissue) (corn (taken from the assay tissue; …)
Assay: cell-based or functional assay

## QRLSSGKRINSASDDAAGLAIA [Bt.Flg22-Syn03, Mutant D1Q (SEQ ID NO: 573)]
  Avg. Activity (%), ROS activity in corn (5828 YX) at 5 nM polypeptide, relative to Bt.4Q7Flg22: 122%
